Assay results taken from patent US6900033 (dated 2005).
Positions of bridges follow the written chain, without caps; N, C: chain ends.

Molecular target: ACE-2 (human)
Experiment: other, ACE-2 enzyme inhibition

Sequence of ACE-2 (human) (Q9BYF1 1-740): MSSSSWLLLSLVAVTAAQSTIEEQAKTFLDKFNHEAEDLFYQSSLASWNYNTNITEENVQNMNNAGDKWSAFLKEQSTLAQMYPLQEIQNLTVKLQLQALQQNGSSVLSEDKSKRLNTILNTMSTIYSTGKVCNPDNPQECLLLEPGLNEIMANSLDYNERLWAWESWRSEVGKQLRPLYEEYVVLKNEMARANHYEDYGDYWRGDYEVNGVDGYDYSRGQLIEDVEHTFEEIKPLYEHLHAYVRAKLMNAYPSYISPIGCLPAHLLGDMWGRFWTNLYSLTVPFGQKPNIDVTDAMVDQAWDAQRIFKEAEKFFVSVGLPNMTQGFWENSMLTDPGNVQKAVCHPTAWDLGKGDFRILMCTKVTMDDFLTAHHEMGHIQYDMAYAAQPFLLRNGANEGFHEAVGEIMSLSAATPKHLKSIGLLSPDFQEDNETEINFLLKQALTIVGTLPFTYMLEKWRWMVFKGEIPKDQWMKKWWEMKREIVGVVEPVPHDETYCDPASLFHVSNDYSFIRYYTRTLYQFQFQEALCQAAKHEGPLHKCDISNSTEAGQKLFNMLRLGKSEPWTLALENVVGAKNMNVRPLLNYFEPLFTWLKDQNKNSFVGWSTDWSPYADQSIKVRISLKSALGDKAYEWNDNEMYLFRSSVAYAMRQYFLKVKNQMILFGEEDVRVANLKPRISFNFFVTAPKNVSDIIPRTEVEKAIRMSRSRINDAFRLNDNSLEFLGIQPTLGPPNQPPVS

| Ki | Binder |
| --- | --- |
| 150 nM | Ac-GDLHACRPVRGDPWWACTLGDPEGGG-NH2 (disulfide 6-17 (inferred)) [DX-513] |
| 150 nM | Ac-GDRLHCKPQRQSPWMKCQHLDPEGGG-NH2 (disulfide 6-17 (inferred)) [DX-512] |
